Laboratory results from patent US20080213836.

Assays:
[1] = test system: T1, Gly-Asp-Asp-Asp-Asp-Lys-β-naphthylamide
T1 sequence: GDDDDK

[2] = test system: recombinant fusion protein of Medaka trypsinogen

For Medaka EP-2 serine protease domain, the “enzyme activity for GD4K-βNA” value [1] was “Both enzymes showed maximal activities for GD4K-βNA at pH 8” and the “conversion of trypsinogen to active trypsin” value [2] was “The trypsinogen was converted to active trypsin by EP-1 faster than by EP-2”.
